Source: patent US20250205353A1 (SYNAFFIX B V, published 2025)

T1: Nectin-4 on SK-BR-3 cells (UniProt Q96NY8 32-510, limits assumed)
T1 sequence (looked up): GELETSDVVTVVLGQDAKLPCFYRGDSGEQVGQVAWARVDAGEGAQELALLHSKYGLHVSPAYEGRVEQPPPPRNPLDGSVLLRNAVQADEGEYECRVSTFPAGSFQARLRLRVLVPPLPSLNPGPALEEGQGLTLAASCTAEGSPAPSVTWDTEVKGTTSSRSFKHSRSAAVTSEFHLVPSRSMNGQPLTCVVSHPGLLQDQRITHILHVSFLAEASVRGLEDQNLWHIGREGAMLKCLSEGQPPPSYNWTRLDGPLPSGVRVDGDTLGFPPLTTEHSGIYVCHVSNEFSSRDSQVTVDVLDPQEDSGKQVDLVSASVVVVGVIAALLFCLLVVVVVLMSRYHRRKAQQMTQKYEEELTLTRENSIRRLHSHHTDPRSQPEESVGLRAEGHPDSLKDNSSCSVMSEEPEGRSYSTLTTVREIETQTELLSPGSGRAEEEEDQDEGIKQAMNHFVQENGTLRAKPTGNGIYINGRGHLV

T2: Human Nectin-4 (PVRL4 Protein, ECD, His Tag) (human, UniProt Q96NY8 32-349)
T2 construct: extracellular domain; Recombinant protein captured on nickel NTA plates; also called hNectin-4; PVRL4-His; not shown: His tag
T2 sequence (looked up): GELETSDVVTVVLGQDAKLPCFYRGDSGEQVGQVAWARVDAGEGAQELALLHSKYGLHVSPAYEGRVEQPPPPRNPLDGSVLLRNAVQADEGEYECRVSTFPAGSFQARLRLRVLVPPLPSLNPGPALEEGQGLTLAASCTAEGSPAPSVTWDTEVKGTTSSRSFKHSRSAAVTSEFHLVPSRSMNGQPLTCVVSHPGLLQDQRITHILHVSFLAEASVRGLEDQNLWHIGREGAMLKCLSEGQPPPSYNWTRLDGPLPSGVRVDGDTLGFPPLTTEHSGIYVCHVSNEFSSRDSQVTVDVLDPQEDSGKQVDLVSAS


How the values were obtained:
[1] = target: T1, Nectin-4 on SK-BR-3 cells; experiment: cell-based or functional assay
[2] = target: T2, Human Nectin-4 (PVRL4 Protein, ECD, His …); experiment: ELISA; His-tagged Nectin-4 ECD on nickel NTA plates, detection with anti-human IgG-HRP
Description: Nickel NTA plates (Pierce™ Nickel coated plated, ThermoScientific™) were washed three times prior to use. Human Nectin-4 (PVRL4 Protein, ECD, His Tag) was dissolved at a concentration of […] in 0.1% BSA in PBS (PBA). 100 μL was added to each well and incubated while shaking for 1 hour at room temperature. After removal, the plate was washed 3x with 0.05% Tween-20 in PBS (washing buffer). ADCs were diluted in 0.1% PBA to a final concentration of 8 μg/mL and 100 μL was added to each well (in triplo). ADCs were incubated for 1 h at room temperature. Prior to the addition of 100 μL 1:1000 dilution of secondary antibody (Goat anti-human IgG, HRP conjugate, Invitrogen) the plate was washed 3x with washing buffer. The plate was incubated again for 1 h at room temperature and subsequently washed 3x with washing buffer and 3x with PBS. Finally, 100 μL TMB ELISA substrate (1 Step™ Turbo TMB ELISA substrate, ThermoScientific™) was added and incubated for 1 minute. The absorbance of the colorimetric signal was measured with Infinite® M1000 (Tecan) at 652 nm. Data was plotted corrected for the background (see FIG. 8).

Binder	IC50 (nM), in vitro cytotoxicity on SK-BR-3 cells (ATPlite luminescence) [1] [nM]	binding result [2]
Enfortumab YTE-4 (other, linker-payload 4 (BCN-HS-(vc-PABC-MMAE)2) clicked to 6-N3-GalNAc on the trimmed core GlcNAc of the heavy-chain glycan; average DAR 3.67) heavy: EVQLVESGGGLVQPGGSLRLSCAASGFTFSSYNMNWVRQAPGKGLEWVSYISSSSSTIYYADSVKGRFTISRDNAKNSLSLQMNSLRDEDTAVYYCARAYYYGMDVWGQGTTVTVSSASTKGPSVFPLAPSSKSTSGGTAALGCLVKDYFPEPVTVSWNSGALTSGVHTFPAVLQSSGLYSLSSVVTVPSSSLGTQTYICNVNHKPSNTKVDKRVEPKSCDKTHTCPPCPAPELLGGPSVFLFPPKPKDTLYITREPEVTCVVVDVSHEDPEVKFNWYVDGVEVHNAKTKPREEQYNSTYRVVSVLTVLHQDWLNGKEYKCKVSNKALPAPIEKTISKAKGQPREPQVYTLPPSREEMTKNQVSLTCLVKGFYPSDIAVEWESNGQPENNYKTTPPVLDSDGSFFLYSKLTVDKSRWQQGNVFSCSVMHEALHNHYTQKSLSLSPGK light: DIQMTQSPSSVSASVGDRVTITCRASQGISGWLAWYQQKPGKAPKFLIYAASTLQSGVPSRFSGSGSGTDFTLTISSLQPEDFATYYCQQANSFPPTFGGGTKVEIKRTVAAPSVFIFPPSDEQLKSGTASVVCLLNNFYPREAKVQWKVDNALQSGNSQESVTEQDSKDSTYSLSSTLTLSKADYEKHKVYACEVTHQGLSSPVTKSFNRGEC	0.05	–
enfortumab (I) (antibody, human IgG1, kappa, IgG transiently expressed in CHO K1 cells; also called Ha22-2(2,4)6.1) heavy: not shown light: DIQMTQSPSSVSASVGDRVTITCRASQGISGWLAWYQQKPGKAPKFLIYAASTLQSGVPSRFSGSGSGTDFTLTISSLQPEDFATYYCQQANSFPPTFGGGTKVEIKRTVAAPSVFIFPPSDEQLKSGTASVVCLLNNFYPREAKVQWKVDNALQSGNSQESVTEQDSKDSTYSLSSTLTLSKADYEKHKVYACEVTHQGLSSPVTKSFNRGEC	–	binds
enfortumab YTE (II) (antibody, human IgG1, kappa, also called enfortumab YTE mutant) heavy: EVQLVESGGGLVQPGGSLRLSCAASGFTFSSYNMNWVRQAPGKGLEWVSYISSSSSTIYYADSVKGRFTISRDNAKNSLSLQMNSLRDEDTAVYYCARAYYYGMDVWGQGTTVTVSSASTKGPSVFPLAPSSKSTSGGTAALGCLVKDYFPEPVTVSWNSGALTSGVHTFPAVLQSSGLYSLSSVVTVPSSSLGTQTYICNVNHKPSNTKVDKRVEPKSCDKTHTCPPCPAPELLGGPSVFLFPPKPKDTLYITREPEVTCVVVDVSHEDPEVKFNWYVDGVEVHNAKTKPREEQYNSTYRVVSVLTVLHQDWLNGKEYKCKVSNKALPAPIEKTISKAKGQPREPQVYTLPPSREEMTKNQVSLTCLVKGFYPSDIAVEWESNGQPENNYKTTPPVLDSDGSFFLYSKLTVDKSRWQQGNVFSCSVMHEALHNHYTQKSLSLSPGK light: DIQMTQSPSSVSASVGDRVTITCRASQGISGWLAWYQQKPGKAPKFLIYAASTLQSGVPSRFSGSGSGTDFTLTISSLQPEDFATYYCQQANSFPPTFGGGTKVEIKRTVAAPSVFIFPPSDEQLKSGTASVVCLLNNFYPREAKVQWKVDNALQSGNSQESVTEQDSKDSTYSLSSTLTLSKADYEKHKVYACEVTHQGLSSPVTKSFNRGEC	–	binds
